US5622932A (Eli Lilly and Company, priority 1995, dated 1997)

Experiments:
insulin receptor = biological target: T1, insulin receptor (Homo sapiens, UniProt P06213); experiment: Insulin radioreceptor assay (displacement of [125I] ligand from human placental membranes); assay type: binding; settings: relative to b,a (insulin) = 100; human placental membrane, 24 hours at 4° C., from EC50 values
T1 construct: 30-50 μg of human placental membrane protein was incubated; from tissue; host or cells: human placental membranes
Procedure: (§1) 67:194-197. Briefly, 30-50 μg of human placental membrane protein was incubated with approximately 10 femtomoles of [^125 I] ligand in a final volume of 500 μl of 100 mM HEPES, pH 7.8, 120 mM NaCl, 5 mM KCl, 1.2 mM MgSO4, 8 mM glucose and 0.25% BSA for 24 hours at 4° C. Membranes were collected on glass fiber filters pre-treated with 0.1% polyethyleneimine by using a cell harvester (Skatron, Lier, Norway). Binding data were analyzed by fitting displacement curves to a four parameter model employing Prefit/Allfit® software for the determination of EC50 values.

IGF-1 receptor = biological target: T2, IGF-1 receptor (Homo sapiens, UniProt P08069); experiment: IGF-1 radioreceptor assay (displacement of [125I] ligand from human placental membranes); assay type: binding; settings: relative to BCAD (IGF-1) = 100; human placental membrane, 24 hours at 4° C., from EC50 values
T2 construct: 30-50 μg of human placental membrane protein was incubated; from tissue; host or cells: human placental membranes
Procedure: as §1

| Substance | % INSULIN POTENCY (insulin receptor) [%] | % IGF-1 POTENCY (IGF-1 receptor) [%] |
| --- | --- | --- |
| IGF-1 [BCAD (IGF-1)] | 1.2 | – |
| insulin [b,a (insulin)] | – | 0.37 |
| proinsulin [bca (proinsulin)] | – | < 0.1 |
